Measurements published in US20100190699A1 (INDIANA UNIVERSITY RESEARCH AND TECHNOLOGY, published 2010).
Each block holds one binder with its values, some of them ahead of it.

Columns and labels:
Experiment in all cases: cell-based or functional assay
glucagon receptor [1] = target: T1, glucagon receptor (UniProt P47871 26-477, limits assumed)
glucagon receptor [2] = target: T1, glucagon receptor; remark: listed apart in the source
GLP-1 receptor = GLP-1 receptor (UniProt P43220 24-463, limits assumed)

T1 sequence (P47871 26-477 limits assumed): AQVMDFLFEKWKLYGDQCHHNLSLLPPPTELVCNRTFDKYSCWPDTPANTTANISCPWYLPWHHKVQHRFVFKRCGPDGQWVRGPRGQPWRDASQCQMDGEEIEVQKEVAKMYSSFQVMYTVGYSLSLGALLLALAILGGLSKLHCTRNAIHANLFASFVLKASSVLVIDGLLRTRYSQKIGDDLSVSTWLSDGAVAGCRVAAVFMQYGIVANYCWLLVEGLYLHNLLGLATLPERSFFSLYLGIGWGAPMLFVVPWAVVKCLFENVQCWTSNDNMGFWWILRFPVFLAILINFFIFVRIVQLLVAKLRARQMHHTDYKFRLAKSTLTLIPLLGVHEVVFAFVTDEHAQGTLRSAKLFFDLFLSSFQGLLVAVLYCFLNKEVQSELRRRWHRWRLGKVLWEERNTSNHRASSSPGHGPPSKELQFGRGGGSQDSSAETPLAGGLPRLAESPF

Observed EC50 (cAMP induction), Test 3 (glucagon receptor [1]): 0.15 nM
Binder: HSQGTFTSDYSKYLESRRAQDFVQWLMDT [glucagon analog D28, E15]

Observed EC50 (cAMP induction), Test 1 (glucagon receptor [1]): 0.89 nM
Binder: HSQGTFTSDYSKYLDSRRAQDFVQWLMNKK [glucagon analog K29, K30]

cAMP Induction, EC50 (luciferase reporter) (glucagon receptor [2]): 0.81 nM
cAMP Induction, EC50 (luciferase reporter) (GLP-1 receptor): 0.41 nM
Binder: HSQGTFTSDYSRYLDSRRAQDFVQWLMNK [Glucagon R12 K29]

Observed EC50 (cAMP induction), Test 3 (glucagon receptor [1]): 0.05 nM
Binder: HSQGTFTSDYSKYLDSRRAQDFVQWLMDTE [glucagon analog D28, E30]

Observed EC50 (cAMP induction), Test 3 (glucagon receptor [1]): 0.03 nM
Binder: HSQGTFTSDYSKYLDSRRAQDFVQWLMDE [glucagon analog D28, E29]

Observed EC50 (cAMP induction), Test 2 (glucagon receptor [1]): 0.12 nM
Binder: HSQGTFTSDYSKYLDSRRAQDFVQWLMNTKK [glucagon analog K30, K31]

Observed EC50 (cAMP induction), Test 2 (glucagon receptor [1]): 0.04 nM
Binder: HSQGTFTSDYSKYLDSRRAQDFVQWLMNTE [glucagon analog E30]
